The text below walks through data of paper PMC11147780, “Vaccination induces broadly neutralizing antibody precursors to HIV gp41” (Nature Immunology, 2024).

Changes are numbered by the printed parent chain.

Experiment [1] has as its target T1, 10E8-GT10.2 epitope scaffold (designed scaffold 10E8-GT10.2 with …, N-linked glycosylation sites added (positions not given)).
T1 chain: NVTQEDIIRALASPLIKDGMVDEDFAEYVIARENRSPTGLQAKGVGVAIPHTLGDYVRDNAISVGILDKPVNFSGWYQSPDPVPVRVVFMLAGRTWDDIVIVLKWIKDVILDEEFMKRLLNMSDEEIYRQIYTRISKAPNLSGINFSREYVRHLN

For experiment [2], the target named is T2, 10E8-GT10.1 epitope scaffold (synthetic construct, circularly …, N-linked glycosylation sites added (positions not given)).
T2 chain: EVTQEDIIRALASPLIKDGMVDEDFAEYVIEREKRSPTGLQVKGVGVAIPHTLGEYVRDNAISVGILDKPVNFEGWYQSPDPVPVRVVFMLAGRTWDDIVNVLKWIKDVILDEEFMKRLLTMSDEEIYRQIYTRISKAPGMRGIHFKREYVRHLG

Experiment [3] deals with T3, 10E8-B1 epitope scaffold (synthetic construct (resurfaced …)).
T3 chain: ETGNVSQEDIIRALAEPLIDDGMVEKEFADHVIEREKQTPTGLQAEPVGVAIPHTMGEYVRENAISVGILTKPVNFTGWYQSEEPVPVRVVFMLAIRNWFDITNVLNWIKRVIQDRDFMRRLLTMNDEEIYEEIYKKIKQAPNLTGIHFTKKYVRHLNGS

B1: NHP-Comp_MPER-GT10v55_W21-01 (antibody, V domains shown)
VH: QVQLQESGPGLVKPSETLSLTCAVSGGSFSSYWWGWIRQPPGKGLEWIGSIYGSSGSTEYNPSLKSRATISRDTSKNQFSLKLSSVTAADTAVYYCARVKAPEIFGVVITGYYFDYWGQGVLVTVSS
VL: SYELTQPLSVSVALGQMARITCGGNNIGRKYVYWYQQKPDQAPVLVIYEDSKRPSGIPERFAGSNSGNTATLTIDGAQARDEADYYCQVWDSSTAYIFGAGTRLTV
By Kd is commonly meant the concentration at which binding is half-saturated. Lower therefore signals higher affinity. B1 came in with a Kd in experiment [1] of 2.63 µM.

B2: MPER-063 (antibody, V domains shown)
VH: QVQLVQSGAEVKKPGSSVKVSCKASGGTFSSYAISWVRQAPGQGLEWMGGIIPIFGTANYAQKFQGRVTITADESTSTAYMELSSLRSEDTAVYYCARGGTHYDFWSGYSDYYYGMDVWGKGTTVTVSS
VL: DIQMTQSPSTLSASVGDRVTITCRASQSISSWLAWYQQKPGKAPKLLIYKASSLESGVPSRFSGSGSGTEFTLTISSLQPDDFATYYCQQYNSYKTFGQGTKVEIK
Regarding B2, the Kd is 4 µM in experiment [2] and 6.6 µM in experiment [1].

B3: NHP-10E8_MPER-GT10v55_W21-18 (antibody, V domains shown)
VH: QLQLQESGPGLVKPSETLSLTCAVSGGSISSSYWSWIRQAPGKGLEWIGYIYGSGSSTNYNPSLKSRVTLSVDTSKNQLSLKLSSVTAADTAVYYCARDVKDYNFWSGYYEDGYFDYWGQGVLVTVSS
VL: DIVMTQTPLSLPVTPGEPASISCRSSQSLLHSNGNTYLHWYLQKPGQSPRLLIYKVTNRESGVPDRFSGSGSGTDFTLKISRVEPEDVGVYYCMQSTKDPYSFGQGTKVEIK
For B3, the Kd in experiment [1] stood at 6 µM.

B4: NHP-Comp_MPER-GT10v55_W26-06 (antibody, V domains shown)
VH: QVQLVQSGAEVKQPGASVKVSCLASGYTFTSYSIHWLRQAHGQRLEWMGWINTATGNPTYTQGFKERFTFSMDTSITTAYLQISSLKTEDTAVYYCARLYRDFWGGYYASSLDVWGRGVLVTVSS
VL: SYDLTQPPSVSVSPGQTARITCGGENIGSEPVHWYQQKPPQAPLQVIYSDSERPSGIPERFSGSKSGNTATLTISGVEAGDEADYYCQVWDISSDHPYIFGAGTRLTV
For B4, the dissociation constant (Kd) in experiment [1] is 0.000112 µM.

B5: NHP-10E8_MPER-GT10v55_W3-20 (antibody, V domains shown)
VH: EVQLVESGGGLVQPGGSLRLSCAASGFSFSNYWMSWVRQAPGKGLEWVGFIKNKADGGTAAYAESVKGRFTISRDDSKNTLYLQMNSLKTEDTAVYFCARDLGRYNFWSAFYSQNRFDVWGPGVLVTVSS
VL: SYEVTQPPSVSVSPGQMARITCGGDNLGSKYVHWYQQKPAQAPVMVMYDDSERPSGIPERFSGSKSGNTATLTISGVEAGDEADYYCQVWDSSSDHPLFGGGTRLTV
Consider B5, for which the Kd in experiment [1] was 0.00482 µM; in experiment [3], 4.27 µM.

B6: NHP-Comp_MPER-GT10v55_W21-08 (antibody, V domains shown)
VH: EVQLVESGGGLVQPGGSLRLSCAASGFTFSHYGLHWVRQAPGKGLEWVAVIWSDGNKKYYADSVKDRFTISRDNSKNMLYLQMNNLKLEDTAVYYCATYTYGDWGQGVLVTVSS
VL: B5 VL with V4L, A40P, M45L, M47I, H96N, P97W, L98V
Regarding B6, in experiment [1], the affinity, expressed as Kd, was 0.0151 µM.

B7: NHP-Comp_MPER-GT10v55_W21-04 (antibody, V domains shown)
VH: DVQLVESGGGLVKPGGSLRLSCVASDFTFSSYEMHWVRQAPGKGLEWVSLISESGDTTYYADSVKGRFTISRDNAKNSLFLQMNSLRAEDTAVYYCTRAITVFGVVITHFDYWGQGVLVPVSS
VL: QSALTQPPSVSKSLGQSVTISCTGTSSDIGGYYAVSWYQQHSGTAPRLLIYEVSKRPSGVSDRFSGSKSGNTASLTISGLQAEDEADYYCGSFRTGYTYIFGAGTRLTV
B7 displayed a dissociation constant (Kd) in experiment [1] of 0.0156 µM.

B8: NHP-Comp_MPER-GT10v55_W26-08 (antibody, V domains shown)
VH: QVTLKESGPALVKPTQTLTLTCTFSGFSISTTGTGVGWIRQPPGKALEWLATISWNDSKYYSTSLKSRLTISKDTSKNQVVLTFTNMDPVDTATYSCARVLQPTITTTNRFDVWGPGVLVTVSS
VL: SYDLTQPPSVSVSPGQTARITCGGDNIGSKYVHWYQQKPPQAPVLVIYYDTERPSGIPERFSGSKSGNTATLTISGVEAGDEADYYCQVWDSSSDHNVFGSGTKLTV
Consider B8, for which the Kd in experiment [1] is 0.00218 µM.

B9: NHP-Comp_MPER-GT10v55_W21-03 (antibody, V domains shown)
VH: QMQLQESGPGLVKPSETLPLTCAVSGASISSNFWSWIRQAPGMGLEWIGRIYGNGGSTDYNPSLKSRVTISIDTSKNQFSLKLSSVTAADTAVYFCASSFLFRFDVWGPGVLVTVSS
VL: QSVLTQPPSASGAPGQSVTISCSGSSSNIGGNHVYWYQQLPGTAPKLLIYYSNQRPSGVPDRFSGSKSGTSASLAITGLRSEDEADYYCAAWDDSLSSYIFGAGTRLTV
In experiment [1], B9 gave a Kd of 0.0108 µM.

B10: MPER-070 (antibody, V domains shown)
VH: QVQLQESGPGLVKPSETLSLTCTVSGGSISSSSYYWGWIRQPPGKGLEWIGSIYYSGSTYYNPSLKSRVTISVDTSKNQFSLKLSSVTAADTAVYYCARHHPHAYDFWSGYYSERYYFDYWGQGTLVTVSS
VL: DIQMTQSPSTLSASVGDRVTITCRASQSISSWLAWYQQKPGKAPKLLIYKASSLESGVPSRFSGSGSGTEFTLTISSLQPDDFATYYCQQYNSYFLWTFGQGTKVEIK
B10: the results for the Kd in experiment [2] and in experiment [1] were 4.1 µM and 13 µM, respectively.

B11: NHP-Comp_MPER-GT10v55_W26-02 (antibody, V domains shown)
VH: QLQLQESGPGLVKPSETLSVTCAVSGGSISGGYGWSWIRQPPGKGLEWIGHIFDSFGNTYYNPSLKSRVTISTDTSKNQFSLKLSSVTAADTAVYYCARETVLGAGDYFDSWGQGVLVTVSS
VL: DIQMTQSPSSLSASVGDTVTITCRASQDINNYLAWYQQKPGKAPKPLIYHASYLESGVPSRFSGSGSGTDFTLTISSLQPEDFAIYYCQQHNAYPFTFGPGTKLDIK
In the case of B11, the Kd in experiment [1] worked out at 0.00318 µM.

B12: MPER-055 (antibody, V domains shown)
VH: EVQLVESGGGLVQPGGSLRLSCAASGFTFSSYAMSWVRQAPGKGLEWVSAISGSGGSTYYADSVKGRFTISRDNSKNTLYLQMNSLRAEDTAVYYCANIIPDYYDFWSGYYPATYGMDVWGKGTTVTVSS
VL: DIQMTQSPSSLSASVGDRVTITCRASQGIRNDLGWYQQKPGKAPKRLIYAASSLQSGVPSRFSGSGSGTEFTLTISSLQPEDFATYYCLQHNSYPLSFGGGTKVEIK
Take B12: the figures for the Kd in experiment [2] and in experiment [1] were 16 µM and 22 µM, respectively.

B13: MPER-068 (antibody, V domains shown)
VH: QVQLQESGPGLVKPSETLSLTCTVSGGSISSYYWSWIRQPPGKGLEWIGYIYYSGSTNYNPSLKSRVTISVDTSKNQFSLKLSSVTAADTAVYYCARSPSPYYDFWSGYFQETNWFDPWGQGTLVTVSS
VL: not shown
Turning to B13, the results for the Kd in experiment [2] and in experiment [1] were 0.7 µM and 2.1 µM, respectively.

B14: NHP-Comp_MPER-GT10v55_W21-07 (antibody, V domains shown)
VH: EVQLVESGGGLAKPGGSLRLSCAASGFTFSSYWMNWVRQTPGKGLEWISAINSGGGSTYYADSVKGRFTISRDNSKNTLSLQMNSLRAEDTAVYYCAKGYGLDSWGQGVVVTVSS
VL: QAAPTQPPSVSGSPGQSVTISCTGTSSDIGYYNAVSWYQQHPGKAPKLMIYEVSKRPSGVSDRFSGSKSGNTASLTISGLQAEDEADYYCSSYAGSNTFIFGAGTRLTV
B14 showed a Kd in experiment [1] of 5.51 µM.

B15: NHP-Comp_MPER-GT10v55_W26-10 (antibody, V domains shown)
VH: EVQLVESGGGLAKPGGSLRLSCVASGFRFSNYWMNWVRQTPGKGLEWISVINSGGVITYYADSVKGRFTISRDNSKNTLSLQMNSLRTEDTAVYYCARQSLDWGLDSWGQGVVVTVSS
VL: SSELTQDPAVSVALGQTVRITCQGDSLRNHYASWYQQKPGQAPVLVVYGNNNRPSGIPERFSGSRSGNTASLTITGAQVEDEADYYCDSWDSSGTHRVFGGGTRLTV
Regarding B15, in experiment [1], the Kd is 0.0746 µM.

B16: NHP-Comp_MPER-GT10v55_W26-04 (antibody, V domains shown)
VH: QVQLQESGPGVVKPSETLSLTCAVSGDSISDSYWWSWIRQPPGKGLEWIGYIYGSSTNTNYNPSLKSRVTISKDTSKNQFSLKLSSVTAADTAVYYCARESRWLEEYPLNTFDYWGQGVLVTVSS
VL: DIVMTQTPLSLPVTPGEPASISCRSSQSLLDSYGYIHLHWYLQKPGQSPQLLIYLGSNRASGVPDRFSGSGSGTDFTLKISRVEAEDVGVYYCMQTLQTPRTFGQGTKVEIK
In the case of B16, the Kd in experiment [1] stood at 0.0208 µM.

B17: MPER-071 (antibody, V domains shown)
VH: QVQLVQSGAEVKKPGASVKVSCKASGYTFTSYDINWVRQATGQGLEWMGWMNPNSGNTGYAQKFQGRVTMTRNTSISTAYMELSSLRSEDTAVYYCARGITYYDFWSGYYPTPYYFDYWGQGTLVTVSS
VL: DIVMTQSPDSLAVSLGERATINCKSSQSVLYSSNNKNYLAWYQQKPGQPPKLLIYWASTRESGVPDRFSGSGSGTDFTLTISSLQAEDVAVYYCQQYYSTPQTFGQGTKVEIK
Turning to B17, the Kd in experiment [2] is 6.4 µM.

B18: MPER-073 (antibody, V domains shown)
VH: QVQLQESGPGLVKPSQTLSLTCTVSGGSISSGGYYWSWIRQHPGKGLEWIGYIYYSGSTYYNPSLKSRVTISVDTSKNQFSLKLSSVTAADTAVYYCARDCAVYDFWSGYGPGGWFDPWGQGTLVTVSS
VL: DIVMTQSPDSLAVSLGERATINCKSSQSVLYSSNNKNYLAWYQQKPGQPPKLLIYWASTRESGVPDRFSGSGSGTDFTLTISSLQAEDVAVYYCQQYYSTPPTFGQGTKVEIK
With B18, the results for the Kd in experiment [2] and in experiment [1] were 7.3 µM and 20 µM, respectively.

B19: MPER-072 (antibody, V domains shown)
VH: QVQLQESGSGLVKPSQTLSLTCAVSGGSISSGGYSWSWIRQPPGKGLEWIGYIYHSGSTYYNPSLKSRVTISVDRSKNQFSLKLSSVTAADTAVYYCARAGHNYDFWSGYYPVGGAFDIWGQGTMVTVSS
VL: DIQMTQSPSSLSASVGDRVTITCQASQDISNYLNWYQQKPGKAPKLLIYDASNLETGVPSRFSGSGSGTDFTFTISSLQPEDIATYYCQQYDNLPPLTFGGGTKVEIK
As to B19, the Kd in experiment [2] is 13 µM; in experiment [1], 16 µM.

B20: MPER-053 (antibody, V domains shown)
VH: EVQLVESGGGLVQPGRSLRLSCTASGFTFGDYAMSWFRQAPGKGLEWVGFIRSKAYGGTTEYAASVKGRFTISRDDSKSIAYLQMNSLKTEDTAVYYCTREGAYYDFWSGYLTKVYGMDVWGQGTTVTVSS
VL: not shown
Turning to B20, the Kd is 11 µM in experiment [2] and 7.9 µM in experiment [1].

B21: NHP-Comp_MPER-GT10v55_W21-02 (antibody, V domains shown)
VH: QVQLQESGPAVVKPSETLSLTCAVSGGSISSNNWWSWIRQSPGKGLEWIGGLYGSGGNTEYYPSLKSRVTISVDTSKNQFSLKLSSVTAADTAVYYCASPAPYYGRGYSFDAFDFWGQGLRVTVSS
VL: QSALTQPPSVSKSLGQSVTISCTGTSSDIGGYNGVSWYQQHSGTAPKLLIYDVNKRPSGVSDRFSGSKSGNTASLTISGLQAEDEADYYCCSYRGGSTYWVFGGGTRLTV
Regarding B21, the affinity in experiment [1], expressed as Kd, was 6.84 µM.

B22: NHP-Comp_MPER-GT10v55_W26-11 (antibody, V domains shown)
VH: EVQLVESGGGLAKPGGSLRLSCAASGFTFSNYWMCWVRQAPGKGLEWISVINSVTSGTYYADSVKGRFTISRENAKNTLYLQMDRLRVEDTAVYYCAWGLGLTAPPVYWGQGVLVTVSS
VL: ETVVTQEPSLSVSPGGTVTLTCGLSSGSVSTSNYPSWYQQTPGQAPRTLVYRTNIRPSGVPDRFSGSILGNKAALTITGAQADDESDFYCLFYMGSGIWVFGGGTRLTV
As for B22, in experiment [1], the Kd is 0.0128 µM.
